# Results reported in patent US20200207859A1 (priority 2017, published 2020).
# B1: Conjugate A: anti-CD74 IgG with pAMF at heavy chain EU position 404 conjugated to DBCO-PEG4-maytansine (conjugate)
# VH: QVQLVESGGGVVQPGRSLRLSCAASGFNFSDYGMHWVRQAPGKGLEWVAVIWYDGSISYYADSVKGRFTISRDNSKNTLYLQMNSLRAEDTAVYYCARGGTVEHGAVYGTDVWGQGTTVTVSS
# VL: DIQMTQSPSSVSASVGDRVTITCRASQGIGSWLAWYQQKPGKAPKLLIYAADRLQSGVPSRFSGSGSGTDFTLTISSLQPEDFATYYCQQYHTYPLTFGGGTKVEIK
# modifications: non-natural residues
# Experiments:
# [1] = system: HH T lymphoma cells; assay: T lymphoma cell line cell killing assay; format: cell-based; settings: 120 hours
# Description: (§1) A total of 12500 cells in a volume of 25 μL were seeded in a 384-well flat bottom white polystyrene plate the day before the assay. […] Filter-sterilized compounds were serial diluted in culture medium and 25 μL of the compounds were added into treatment wells in quadruplicates. Plates were cultured at 37° C. in a CO2 incubator for 120 hours. For cell viability measurement, 30 μL of Cell Titer-Glo® reagent (Promega Corp.; Madison, Wis.) was added into each well, and plates were processed per product instructions. Relative luminescence was measured on an ENVISION® plate reader (Perkin-Elmer; Waltham, Mass.). Relative luminescence readings were converted to percent (%) viability using untreated cells as controls. Data was fitted with non-linear regression analysis, using log(inhibitor) vs. response, variable slope, 4-parameter fit equation using GraphPad Prism (GraphPad v 5.00, Software; San Diego, Calif.). Data was expressed as percent (%) relative cell viability (average of the quadruplicates) vs. dose of compounds in units of nanomolar (nM). Cell killing EC50 values and span were calculated by Prism in order to evaluate the potency of each compound on each cell line.
# [2] = system: HuT-78 T lymphoma cells; assay: T lymphoma cell line cell killing assay; format: cell-based; settings: HuT-78, 120 hours
# Description: as §1
# [3] = system: My-La T lymphoma cells; assay: T lymphoma cell line cell killing assay; format: cell-based; settings: 120 hours
# Description: as §1
# [4] = system: ARP-1 multiple myeloma cells; assay: Disseminated ARP-1 multiple myeloma model; format: in vivo, mouse; settings: CB17 SCID mice, ARP-1 i.v., 3 mg/kg q7dx4 IV
# Description: Female CB17 SCID (severe combined immunodeficiency) were inoculated with ARP-1 cells via tail vein injection. Prior to tumor cell inoculation, animals were pre-treated with 0.4 mg/mouse Fludarabine and 2 mg/mouse Cyclophosphamide (intraperitoneal injection). Randomization and treatment was initiated 14 days post tumor inoculation. Treatment groups are outlined in Table 4. All test articles were formulated in 10 mM citrate pH 6.0, 10% sucrose and diluted with PBS. Animals were administered with the designated test article four times every 7 days (q7dx4) by intravenous injection. […] Body weights were monitored twice per week. When vehicle control animals reached the study endpoint (euthanized due to large, palpable internal tumors), three animals from the Group 2 and Group 3 were euthanized for necropsy and bone marrow harvest (from tibia and femur) for flow cytometry. The remaining animals in treated groups were monitored for up to 3 months after start of treatment.
# Bone marrow cells from mouse femur and tibia were pooled and assessed for CD138 expression using the Alexa Fluor 647 mouse anti-human CD138 clone MI15 (BD Biosciences #562097) according to the manufacturer's protocol. Direct immunofluorescence flow cytometric analysis was performed using an LSRII flow cytometer and FACS Diva Software. Data was analyzed using Flowjo (Tree Star, Inc., Ashland, Oreg.).
# Body weight, tissue volume, or tissue weights at study endpoint, were analyzed using a one-way analysis of variance (ANOVA) with Dunnett's multiple comparison test. A probability of less than 5% (p<0.05) was considered as significant.
molecule,measurement,setting,value
B1,Cell killing Span,[1],77%
same,EC50,[1],0.22 nM
same,cell killing activity (in words),[1],potent cell killing activity
same,Cell killing Span,[2],72%
same,EC50,[2],0.59 nM
same,cell killing activity (in words),[2],potent cell killing activity
same,Cell killing Span,[3],73%
same,EC50,[3],0.54 nM
same,cell killing activity (in words),[3],potent cell killing activity
same,body weight change (BWC),[4],No meaningful change in body weight
same,delay of weight gain after first round of treatment,[4],approximately 20 days
same,human CD138 positive ARP-1 myeloma cells in the bone marrow (femur and tibia),[4]; flow cytometry,substantially inhibited ARP-1 growth in the bone marrow
same,kidney and ovary tissue weights,[4]; n=3,comparable tissue weights to untreated age-matched control animals
